Patent US20100297124A1 (published 2010)

What was measured:
[1] = target: T1, neuropilin 1 (NRP1) on human umbilical vein endothelial cells (HUVEC) (human, UniProt O14786 22-923); test: flow cytometry, Sema3A/Fc (2 µg/ml) on HUVEC, anti-human IgG Fc detection
T1 construct: whole, on cells; also called cell-surface NRP1
Protocol: (§1) The results shown in FIGS. 8-12 indicate that oligo(G) can promote the internalization of NRP1 by bridging NRP1 to the scavenger SREC-I receptor on endothelial cells. This should disrupt the binding of the NRP1 ligands Sema3A and VEGF165 to endothelial cells due to receptor internalization. To verify this hypothesis, HUVEC were incubated at 37° C. for 1 hour with or without phosphorothioate G18 (sG18) (4 or 16 μg/ml). Subsequently, the cells were washed and binding of Sema3A/Fc and biotin-labeled VEGF165 tested after incubation at 4° C. for 1 hour. Bound Sema3A/Fc was detected by flow cytometry after staining with FITC-conjugated goat anti-human IgG-Fc; bound VEGF165 was detected by flow cytometry after staining with avidin-FITC.

[2] = target: T1, neuropilin 1 (NRP1) on human umbilical …; test: flow cytometry, biotinylated VEGF165 (100 ng/ml) on HUVEC, avidin-FITC detection
Protocol: as §1

T1 sequence (O14786 22-923): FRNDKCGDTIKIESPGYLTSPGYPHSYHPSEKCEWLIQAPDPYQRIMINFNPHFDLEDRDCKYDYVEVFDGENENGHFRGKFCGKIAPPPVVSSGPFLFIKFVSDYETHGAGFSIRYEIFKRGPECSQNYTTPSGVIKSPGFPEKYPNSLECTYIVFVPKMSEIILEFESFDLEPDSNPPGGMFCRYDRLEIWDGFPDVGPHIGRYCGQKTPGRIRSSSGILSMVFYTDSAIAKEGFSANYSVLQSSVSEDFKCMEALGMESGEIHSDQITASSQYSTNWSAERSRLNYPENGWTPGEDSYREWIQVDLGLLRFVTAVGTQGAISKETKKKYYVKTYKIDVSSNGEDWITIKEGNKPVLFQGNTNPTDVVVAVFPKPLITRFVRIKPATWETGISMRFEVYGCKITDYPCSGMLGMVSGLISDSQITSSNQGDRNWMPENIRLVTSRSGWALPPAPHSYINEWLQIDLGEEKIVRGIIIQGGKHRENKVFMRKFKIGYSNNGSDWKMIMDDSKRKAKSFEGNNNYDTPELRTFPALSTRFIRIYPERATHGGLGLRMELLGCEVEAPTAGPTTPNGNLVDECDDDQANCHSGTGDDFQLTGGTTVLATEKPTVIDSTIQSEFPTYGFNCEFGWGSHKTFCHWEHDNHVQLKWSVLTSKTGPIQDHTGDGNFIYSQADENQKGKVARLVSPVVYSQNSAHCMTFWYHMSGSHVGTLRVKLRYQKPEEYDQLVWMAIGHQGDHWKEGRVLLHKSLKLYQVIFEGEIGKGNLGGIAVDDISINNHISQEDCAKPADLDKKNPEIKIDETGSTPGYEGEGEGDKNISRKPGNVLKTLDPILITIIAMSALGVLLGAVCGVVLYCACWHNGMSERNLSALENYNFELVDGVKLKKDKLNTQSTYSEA

B1: human Sema3A/Fc (Fc fusion, UniProt Q14563 26-771, looked up)
chain: KNNVPRLKLSYKEMLESNNVITFNGLANSSSYHTFLLDEERSRLYVGAKDHIFSFDLVNIKDFQKIVWPVSYTRRDECKWAGKDILKECANFIKVLKAYNQTHLYACGTGAFHPICTYIEIGHHPEDNIFKLENSHFENGRGKSPYDPKLLTASLLIDGELYSGTAADFMGRDFAIFRTLGHHHPIRTEQHDSRWLNDPKFISAHLISESDNPEDDKVYFFFRENAIDGEHSGKATHARIGQICKNDFGGHRSLVNKWTTFLKARLICSVPGPNGIDTHFDELQDVFLMNFKDPKNPVVYGVFTTSSNIFKGSAVCMYSMSDVRRVFLGPYAHRDGPNYQWVPYQGRVPYPRPGTCPSKTFGGFDSTKDLPDDVITFARSHPAMYNPVFPMNNRPIVIKTDVNYQFTQIVVDRVDAEDGQYDVMFIGTDVGTVLKVVSIPKETWYDLEEVLLEEMTVFREPTAISAMELSTKQQQLYIGSTAGVAQLPLHRCDIYGKACAECCLARDPYCAWDGSACSRYFPTAKRRTRRQDIRNGDPLTHCSDLHHDNHHGHSPEERIIYGVENSSTFLECSPKSQRALVYWQFQRRNEERKEEIRVDDHIIRTDQGLLLRSLQQKDSGNYLCHAVEHGFIQTLLKVTLEVIDTEHLEELLHKDDDGDGSKTKEMSNSMTPSQKVWYRDFMQLINHPNLNTMDEFCEQVWKRDRKQRRQRPGHTPGNSNKWKHLQENKKGRNRRTHEFERAPRSV
notes: Commercial reagent (R&D Systems); not shown: Fc portion
binding result [1]: binds

B2: Recombinant human VEGF165 (biotinylated) (ligand, UniProt P15692-4 27-191, looked up)
chain: APMAEGGGQNHHEVVKFMDVYQRSYCHPIETLVDIFQEYPDEIEYIFKPSCVPLMRCGGCCNDEGLECVPTEESNITMQIMRIKPHQGQHIGEMSFLQHNKCECRPKKDRARQENPCGPCSERRKHLFVQDPQTCKCSCKNTDSRCKARQLELNERTCRCDKPRR
modifications: biotinylated (sites not given)
notes: Commercial reagent (R&D Systems); also called biotin-VEGF165; biotin-labeled VEGF165
binding result [2]: binds
